{"source": "patent US20170315124A1", "about": "(ATTOGEN BIOMEDICAL SUZHOU, published 2017)", "key": {"[1]": {"molecular_target": "T1, GST-HPV16 L2 fusion protein (HPV16, UniProt P03107 1-473)", "T1 construct": "Specificity control antigen in the ELISA; also called recombinant protein HPV16 L2; not shown: glutathione S-transferase (GST) fusion partner", "T1 sequence": "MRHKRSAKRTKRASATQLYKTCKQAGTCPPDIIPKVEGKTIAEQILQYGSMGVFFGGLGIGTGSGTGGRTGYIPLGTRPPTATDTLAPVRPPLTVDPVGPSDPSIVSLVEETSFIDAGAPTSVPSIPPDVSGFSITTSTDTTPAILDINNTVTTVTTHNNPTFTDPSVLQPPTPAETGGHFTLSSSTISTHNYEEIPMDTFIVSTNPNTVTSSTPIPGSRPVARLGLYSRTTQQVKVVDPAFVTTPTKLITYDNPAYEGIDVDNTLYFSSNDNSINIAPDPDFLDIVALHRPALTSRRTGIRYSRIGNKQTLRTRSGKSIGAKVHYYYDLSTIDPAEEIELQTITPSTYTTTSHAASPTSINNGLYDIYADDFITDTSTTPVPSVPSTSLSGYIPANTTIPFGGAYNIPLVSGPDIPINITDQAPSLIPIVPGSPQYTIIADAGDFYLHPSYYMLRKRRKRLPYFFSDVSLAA", "assay": "indirect ELISA on coated antigen"}, "polypeptide HPV16 E7-1": {"molecular_target": "T2, polypeptide HPV16 E7-1 (HPV16)", "T2 peptide": "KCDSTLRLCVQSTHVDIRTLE", "assay": "indirect ELISA on coated peptide"}, "[2]": {"molecular_target": "T3, His-HPV16 E7 recombinant fusion protein (HPV16, UniProt P03129 2-98)", "T3 construct": "also called recombinant protein HPV16 E7; not shown: His tag", "T3 sequence": "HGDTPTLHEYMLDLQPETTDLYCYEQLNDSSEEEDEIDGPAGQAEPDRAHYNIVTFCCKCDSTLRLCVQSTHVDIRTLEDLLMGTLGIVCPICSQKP", "assay": "indirect ELISA, method of Beatty et al.; reference 2G7"}, "[3]": {"molecular_target": "T3, His-HPV16 E7 recombinant fusion protein", "assay": "indirect ELISA, method of Beatty et al.; reference 1H11"}, "[4]": {"molecular_target": "T3, His-HPV16 E7 recombinant fusion protein", "assay": "indirect ELISA, method of Beatty et al.; His-HPV16 E7 coated at 4 concentrations, 7B6 in 8 two-fold dilutions from 2 µg/ml; mean of 6 K values"}}, "data": [{"binder": "anti-HPV16 E7 monoclonal antibody 7B6 (antibody, V domains shown, also called mAb anti-HPV16E7 7B6) VH: VKLQESGPELVKPGASMKISCKASGYSFTGSTMNWVKQSHGKNLEWIGLIDPYNGVIRYNQKFKGRATLTIDKSSSTAYMELLSLTSDDSAVYYCARKLRYWGQGTTLTVSS VL: ATQSPSSLNVSPGEKVTMSCKSSQSLLNSGNQRNYLAWYQQKPGQPPKLLIYGASTRESGVPDRFTGSGSGTDFTLTISSVQAEDLAVYYCQNDLSYPLTFGAGTKLELK", "values": [{"measurement": "binding result", "setting": "[1]", "value": "no binding (tested: 7B6 1 µg/ml; antigen coated at 2 µg/ml)"}, {"measurement": "binding result", "setting": "polypeptide HPV16 E7-1", "value": "no binding"}, {"measurement": "fold of binding affinity over 2G7", "setting": "[2]", "value": 2, "unit": "fold"}, {"measurement": "fold of binding affinity over 1H11", "setting": "[3]", "value": 5, "unit": "fold"}, {"measurement": "Kd", "setting": "[4]", "value": 0.64, "unit": "nM"}]}]}
